From paper PMC6315623

B1: unnamed (parent)
chain 1: PHLSRQPEQPEQRALGPVSMPNLVPEVIDLTCHEAGFPPSDDEDEEG
chain 2: MPQPIEKVSVSTQTKKLSASSPRMLHRSTQTTNDGVCQSMCHDKYTKIFNDFKDRMKSDHKRETERVVREALEKLRSEMEEEKRQAVNKAVANMQGEMDRKCKQVKEKCKEEFVEEIKKLATQHKQLISQTKKKQWCYNCEEEAMYHCCWNTSYCSIKCQQEHWHAEHKRTCRRKR

Variants of: B1
Experiment: yeast two-hybrid (β-galactosidase activity)
Details: with partner chain of the complex shown; n = 3; parent: 100; read off a plot
chain 1 PHLSRQPEQPEQRALGPVSAPNLVPEVIDLTCHEAGFPPSDDEDEEG was tested, and the percent of parent was 160%. Variant chain 1 PHLSRQPEQPEQRALGPVAMPNLVPEVIDLTCHEAGFPPSDDEDEEG has a percent of parent of 89%. chain 1 PHLSRQPEQPEQRALGPVSMPNLVPEVADLTCHEAGFPPSDDEDEEG gave a percent of parent of 140%. chain 1 PHLSRQPEQPEQRALGPVSMPALVPEVIDLTCHEAGFPPSDDEDEEG showed a percent of parent of 100%. chain 1 PHLSRQPEQPEQRALGPVSMPNLVPEAIDLTCHEAGFPPSDDEDEEG gave a percent of parent of 130%. In the case of chain 1 PHLSRQPEQPEQRALGPVSMPNLVAEVIDLTCHEAGFPPSDDEDEEG, the percent of parent is reported as 180%. chain 1 PHLSRQPEQPEQRALGPVSMPNLAPEVIDLTCHEAGFPPSDDEDEEG gave a percent of parent of 100%. For chain 1 PHLSRQPEQPEQRALGPVSMPNLVPAVIDLTCHEAGFPPSDDEDEEG, the percent of parent was 150%.
